Data on 2 molecules can be found in patent US20170129957A1 (BERGENBIO ASA, published 2017).

The target in assay [1] is T1, recombinant human Axl-Fc chimera (R&D Systems, Cat. no. 154-AL) (human, UniProt P30530 26-451).
T1 construct: Bought reagent; also called rhAxl-Fc; rhAxl; not shown: human IgG1 Fc domain
T1 sequence: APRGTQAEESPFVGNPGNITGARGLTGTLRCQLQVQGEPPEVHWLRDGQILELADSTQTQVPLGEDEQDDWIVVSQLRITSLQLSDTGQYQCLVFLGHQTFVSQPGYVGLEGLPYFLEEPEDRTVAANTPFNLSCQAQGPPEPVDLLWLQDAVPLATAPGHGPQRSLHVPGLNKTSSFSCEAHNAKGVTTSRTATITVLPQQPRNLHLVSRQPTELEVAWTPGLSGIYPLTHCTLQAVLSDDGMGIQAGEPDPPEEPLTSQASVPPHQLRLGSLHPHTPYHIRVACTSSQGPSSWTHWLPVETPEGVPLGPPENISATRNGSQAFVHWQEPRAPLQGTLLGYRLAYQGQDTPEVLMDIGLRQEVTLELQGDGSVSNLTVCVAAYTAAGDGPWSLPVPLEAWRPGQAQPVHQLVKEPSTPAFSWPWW
Put plainly: SPR (Biacore 3000, 25 °C), rhAxl-Fc immobilised at 190 RU, 1H12 1.3-666.7 nM. (In general: In SPR one partner is held on a chip, and binding of the other changes the refractive index at the surface.)

For assay [2], the target named is T1, recombinant human Axl-Fc chimera (R&D …). The experiment in a line: SPR (Biacore 3000, 25 °C), rhAxl-Fc immobilised at 190 RU, 1H12 1.3-666.7 nM, KD as koff/kon.
The target in assay [3] is T2, recombinant human Mer-Fc chimera (R&D Systems, Cat. no. 891-MR) (human, UniProt Q12866 21-499, limits assumed).
T2 construct: Bought soluble Fc chimera; also called rhMer-Fc; rhMer; Fc part of the bought chimera not given
T2 sequence (looked up): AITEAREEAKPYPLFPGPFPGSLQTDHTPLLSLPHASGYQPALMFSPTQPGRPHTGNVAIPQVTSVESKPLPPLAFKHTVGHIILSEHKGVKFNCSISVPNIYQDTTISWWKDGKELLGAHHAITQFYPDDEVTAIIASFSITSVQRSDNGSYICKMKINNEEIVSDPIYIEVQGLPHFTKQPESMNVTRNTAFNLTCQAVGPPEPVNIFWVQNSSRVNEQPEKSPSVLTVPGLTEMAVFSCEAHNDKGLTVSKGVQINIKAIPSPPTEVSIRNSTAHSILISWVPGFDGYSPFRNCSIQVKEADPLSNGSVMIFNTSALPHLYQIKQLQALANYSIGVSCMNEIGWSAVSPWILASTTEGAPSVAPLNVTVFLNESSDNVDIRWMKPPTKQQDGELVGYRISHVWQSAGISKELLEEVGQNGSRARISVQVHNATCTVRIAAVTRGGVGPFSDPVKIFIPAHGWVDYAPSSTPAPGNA
The experiment in a line: SPR (Biacore 3000), rhMer-Fc immobilised on CM5 at 303.6 RU, MAb 1H12 injected.

The target in assay [4] is T3, recombinant mouse Axl-Fc chimera (R&D Systems, Cat. no. 854-AX) (mouse, UniProt Q00993 19-443).
T3 construct: Bought soluble Fc chimera; also called rmAxl-Fc; rmAxl; Fc part of the bought chimera not given
T3 sequence: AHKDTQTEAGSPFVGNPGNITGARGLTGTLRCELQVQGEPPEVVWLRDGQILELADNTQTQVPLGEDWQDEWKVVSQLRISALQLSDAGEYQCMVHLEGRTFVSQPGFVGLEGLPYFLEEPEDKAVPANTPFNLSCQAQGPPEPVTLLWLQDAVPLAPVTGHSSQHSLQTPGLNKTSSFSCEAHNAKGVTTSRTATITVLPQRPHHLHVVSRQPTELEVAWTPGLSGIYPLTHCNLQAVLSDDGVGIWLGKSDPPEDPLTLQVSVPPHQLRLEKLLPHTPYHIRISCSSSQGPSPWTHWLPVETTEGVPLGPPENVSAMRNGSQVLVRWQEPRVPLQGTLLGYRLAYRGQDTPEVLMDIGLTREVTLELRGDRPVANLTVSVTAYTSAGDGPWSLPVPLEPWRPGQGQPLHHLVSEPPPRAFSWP
Put plainly: SPR (Biacore 3000), rmAxl-Fc immobilised on CM5 at 2,115.9 RU, MAb 1H12 injected [upper panel 1H12].

Assay [5] has as its target T1, recombinant human Axl-Fc chimera (R&D …). The experiment in a line: SPR (Biacore 3000), rhAxl-Fc immobilised on CM5 at 190 RU, MAb 1H12 at 1.3-666.7 nM, 25 °C, BIAevaluation fit [table under the sensorgrams].
Assay [6] has as its target T4, human Axl receptor of Axl+ human cell lines (MDA-MB-231, NCI-H1299, HeLa) (human, UniProt P30530 26-894).
T4 construct: also called Axl+ cells; Axl-positive cells
T4 sequence: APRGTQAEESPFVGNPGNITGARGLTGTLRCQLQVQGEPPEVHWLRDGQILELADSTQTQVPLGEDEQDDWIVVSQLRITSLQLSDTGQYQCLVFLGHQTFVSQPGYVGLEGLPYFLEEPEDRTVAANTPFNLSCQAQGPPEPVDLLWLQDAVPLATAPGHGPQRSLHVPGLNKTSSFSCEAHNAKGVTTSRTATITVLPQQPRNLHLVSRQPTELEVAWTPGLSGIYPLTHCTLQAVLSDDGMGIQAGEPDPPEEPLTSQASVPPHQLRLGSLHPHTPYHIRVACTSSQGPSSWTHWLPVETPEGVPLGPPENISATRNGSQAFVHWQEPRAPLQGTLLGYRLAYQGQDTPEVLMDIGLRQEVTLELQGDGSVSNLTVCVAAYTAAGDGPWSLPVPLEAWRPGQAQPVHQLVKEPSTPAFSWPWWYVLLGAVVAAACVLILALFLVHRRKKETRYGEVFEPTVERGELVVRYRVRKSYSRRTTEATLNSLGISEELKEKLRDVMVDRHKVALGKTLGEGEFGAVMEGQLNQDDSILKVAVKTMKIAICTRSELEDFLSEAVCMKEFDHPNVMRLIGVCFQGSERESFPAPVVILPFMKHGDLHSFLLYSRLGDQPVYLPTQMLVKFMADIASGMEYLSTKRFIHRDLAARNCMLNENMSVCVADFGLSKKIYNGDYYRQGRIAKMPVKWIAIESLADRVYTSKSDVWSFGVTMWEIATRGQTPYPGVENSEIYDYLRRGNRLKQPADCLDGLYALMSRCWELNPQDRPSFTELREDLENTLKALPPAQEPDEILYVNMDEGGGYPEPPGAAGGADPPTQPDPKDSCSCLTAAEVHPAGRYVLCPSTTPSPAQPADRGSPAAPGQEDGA
The experiment in a line: flow cytometry on MDA-MB-231 cells, detection with APC-conjugated donkey anti-mouse IgG (H+L) F(ab')2.

The target in assay [7] is T5, recombinant human Tyro3/Dtk-Fc chimera (R&D Systems, Cat. no. 859-DK) (human, UniProt Q06418 41-428).
T5 construct: Bought soluble Fc chimera; also called rhTyro3-Fc; rhTyro3; Fc part of the bought chimera not given
T5 sequence: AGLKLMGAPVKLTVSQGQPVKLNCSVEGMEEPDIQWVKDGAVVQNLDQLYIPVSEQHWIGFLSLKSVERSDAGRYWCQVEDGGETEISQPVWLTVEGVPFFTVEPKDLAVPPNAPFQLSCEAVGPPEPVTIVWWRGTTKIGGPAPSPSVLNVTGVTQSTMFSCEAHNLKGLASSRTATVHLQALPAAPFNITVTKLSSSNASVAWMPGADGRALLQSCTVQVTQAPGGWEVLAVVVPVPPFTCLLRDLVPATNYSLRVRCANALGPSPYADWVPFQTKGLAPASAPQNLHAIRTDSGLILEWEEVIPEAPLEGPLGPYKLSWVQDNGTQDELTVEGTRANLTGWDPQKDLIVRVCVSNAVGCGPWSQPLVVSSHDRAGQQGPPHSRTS
Put plainly: SPR (Biacore 3000), rhTyro3/Dtk-Fc immobilised on CM5 at 364.0 RU, MAb 1H12 injected.

The target in assay [8] is T1, recombinant human Axl-Fc chimera (R&D …). The experiment in a line: SPR (Biacore 3000, 25 °C), calculated as ln2/koff.
For assay [9] the target is unchanged. The experiment in a line: SPR (Biacore 3000, 25 °C), rhAxl-Fc immobilised at 190 RU, ch1H12 1.3-666.7 nM, 1:1 Langmuir model.
Assay [10] has the same target. Put plainly: SPR (Biacore 3000, 25 °C), rhAxl-Fc immobilised at 190 RU, ch1H12 1.3-666.7 nM, 1:1 Langmuir model, KD as koff/kon.
Assay [11] concerns the target T4, human Axl receptor of Axl+ human cell …. The experiment in a line: flow cytometry on MDA-MB-231 cells, detection with APC-conjugated donkey anti-human IgG (H+L) F(ab')2.
The target of assay [12] is T1, recombinant human Axl-Fc chimera (R&D …). Put plainly: SPR (Biacore 3000), rhAxl-Fc immobilised on CM5 at 190 RU, ch1H12 at 1.3-666.7 nM, 25 °C, 1:1 Langmuir fit [table under the sensorgrams].
Assay [13] has the same target. The experiment in a line: SPR (Biacore 3000, 25 °C), comparison of KD with parental murine 1H12.

B1: mouse anti-Axl monoclonal antibody 1H12 (antibody, V domains shown)
VH: EVKLVESGGDLVKPGGSLKLSCAASGFTFSSYGMSWVRQTPDKRLEWVATISSGGSYTYYPDSVKGRFTISRDNAKNTLYLQMSSLKSEDTAMYYCARHPIYYTYDDTMDYWGQGTSVTVSS
VL: DIVLTQSPAIMAASPGEKVTMTCSASSSVSSGNFHWYQQKPGTSPKLWIYRTSNLASGVPARFSGSGSGTSYSLTISSMEAEDAATYYCQQWSGYPWTFGGGTKLEIK
notes: also called MAb 1H12; m 1H12
Broadly, the koff is a measure of how fast the partners let go of each other. In general, Kd refers to a measure of binding affinity in units of concentration. The kon is the second-order rate constant of association. A word on the EC50 (read off the curve): it is the concentration giving half of the maximal effect. For B1, the koff in [1] is 1.07e-05 s⁻¹. Further, the Kd in assay [2] was 0.0498 nM. Besides, the binding result in [3], in assay [4] and in [7] was “no binding (tested: 10 µg/mL)” throughout. Moreover, the kon in assay [5] is 214000 M⁻¹ s⁻¹. Moreover, the “EC50 (read off the curve)” value in [6] is around 0.9 nM. In [8], the “half-life of the 1H12/Axl complex” value was 18 h.

B2: chimeric (mouse variable/human constant IgG1) monoclonal antibody ch1H12 (antibody, V domains shown)
VH: EVKLVESGGDLVKPGGSLKLSCAASGFTFSSYGMSWVRQTPDKRLEWVATISSGGSYTYYPDSVKGRFTISRDNAKNTLYLQMSSLKSEDTAMYYCARHPIYYTYDDTMDYWGQGTSVTVSS
VL: DIVLTQSPAIMAASPGEKVTMTCSASSSVSSGNFHWYQQKPGTSPKLWIYRTSNLASGVPARFSGSGSGTSYSLTISSMEAEDAATYYCQQWSGYPWTFGGGTKLEIK
notes: also called chimeric MAb ch1H12; chimeric monoclonal antibody 1H12; not shown: constant domains of the human IgG1 heavy chain; human light chain constant domain (C-kappa)
B2: in assay [9], the koff is 2.99e-06 s⁻¹. Besides, the Kd in assay [10] came out at 0.011 nM. Also, the “EC50 (read off the curve)” value in assay [11] is around 0.6 nM. Further, the kon in assay [12] stood at 271000 M⁻¹ s⁻¹. The “fold lower KD than the parental murine antibody 1H12” value in [13] is 4.5 fold. The “half-life of the ch1H12/Axl complex” value in assay [8] was 64.4 h.
